Laboratory results: patent US6916917B1, “Chimeric pro-caspases and methods of using same” (California Institute of Technology, priority 1998, dated 2005)

Biological target: T1, pro-caspase-8 (Homo sapiens, UniProt P62942+Q14790)
T1 construct: in vitro translated, ^35S-labeled Fkp3-Casp8(206); made in house; host or cells: cell-free in vitro transcription/translation, TNT Reticulocyte Lysate System (Promega)
Test: Cell-free processing of pro-caspase-8 (in vitro translated, 35S-labeled, SDS-PAGE autoradiography)
Format: biochemical
Settings: AP1510 100 nM; FK506 100 nM; Z-DEVD 10 μM
Experimental: In vitro transcription and translation of the indicated constructs with ^35S-labeled methionine were carried out with the TNT Reticulocyte Lysate System (Promega; Madison Wis.). The reaction mixture contained 1 μl of the in vitro translation product and the indicated drugs dissolved in 3 μl of CED3 reaction buffer (Xue et al., Genes Devel. 10:1073-1083 (1996), which is incorporated herein by reference). Final drug concentrations of 100 nM of AP1510 or FK506 and 10 μM of Z-Asp-Glu-Val-Asp(SEQ ID NO:1)(Z-DEVD; Enzyme System Products; Calif.) were used. The reaction mixture was incubated in 30° C. for 4 hr, then the reaction stopped by the addition of SDS sample buffer. Reaction products were visualized by SDS-PAGE and autoradiography.

T1 sequence (P62942+Q14790 fused): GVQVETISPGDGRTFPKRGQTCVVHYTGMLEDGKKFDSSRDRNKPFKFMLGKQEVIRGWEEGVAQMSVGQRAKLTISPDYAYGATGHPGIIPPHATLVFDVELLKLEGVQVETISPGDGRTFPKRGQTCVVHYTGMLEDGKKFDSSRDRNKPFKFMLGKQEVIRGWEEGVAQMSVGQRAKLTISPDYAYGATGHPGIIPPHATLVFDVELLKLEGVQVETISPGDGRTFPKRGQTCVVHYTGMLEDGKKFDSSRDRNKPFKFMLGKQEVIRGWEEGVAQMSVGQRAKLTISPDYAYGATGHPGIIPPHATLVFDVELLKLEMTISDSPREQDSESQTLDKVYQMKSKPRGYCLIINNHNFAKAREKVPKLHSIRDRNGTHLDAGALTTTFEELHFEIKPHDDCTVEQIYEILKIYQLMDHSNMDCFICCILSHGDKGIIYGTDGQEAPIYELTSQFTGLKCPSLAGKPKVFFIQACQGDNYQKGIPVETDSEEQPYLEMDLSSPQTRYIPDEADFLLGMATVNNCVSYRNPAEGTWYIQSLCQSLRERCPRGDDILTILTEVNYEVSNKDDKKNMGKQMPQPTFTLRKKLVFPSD

effect on AP1510-initiated cell-free processing of Fkp3-Casp8(206): inhibited
Substance: Z-Asp-Glu-Val-Asp (ZDEVD; N-terminal benzyloxycarbonyl (Z); enzyme used in cell-free processing of Pro-Caspase-8) [z-DEVD]
